Data reported in publication PMC6416337.

Biological target: 14-3-3λ (UniProt P48349)
Assay: GST pull-down, anti-14-3-3 blot
Conditions: reference: SOS2-JD without PKS5; sites S294

## SOS2 junction domain (SOS2-JD) (from UniProt Q9LDI3) SOS2-JD incubated with PKS5 and ATP
  binding against the reference: stronger
